# Experimental data taken from patent US20230000771A1 (WISCONSIN ALUMNI RESEARCH FOUNDATION, published 2023).
# Where no end group is shown, it is not given here.
# B1: dendrimer-peptide conjugate G7-pPD1 (pPD-1 peptides conjugated to PAMAM dendrimer) (other)
# peptide: HVVWHRESPSGQTDTLAA
# modifications: not fully specified (C-terminus); also: conjugated to G7 PAMAM dendrimer, attachment site and number per dendrimer not given here
# notes: Multivalent conjugate; Only the peptide part is a polypeptide; also called dendrimer-pPD-1; dendrimer-peptide conjugates
# B2: aPD-L1 (full anti-PD-L1 antibody) (antibody, V domains shown)
# VH: EVQLLESGGGLVQPGGSLSLSCAASGFSFSSGYDMCWVRQAPGKGLEWIACIAAGSAGITYDANWAKGRFTISRDNSKNTLYLQMNSLRAEDTAVYYCARSAFSFDYAMDLWGQGTLVTVSS
# VL: DIQMTQSPSTLSASVGDRVTITCQASQSISSHLNWYQQKPGKAPKLLIYKASTLASGVPSRFSGSGSGTEFTLTISSLQPDDFATYYCQQGYSWGNVDNVFGGGTKVTVL
# Tests used:
# [1] = molecular target: T1, PD-L1 (SPR target) (UniProt Q9NZQ7 19-238, limits assumed); assay: SPR; drawn table under the sensorgrams, column Ka
# T1 construct: also called PD-L1/CD274
# [2] = molecular target: T1, PD-L1 (SPR target); assay: SPR
# [3] = molecular target: T1, PD-L1 (SPR target); assay: SPR; drawn table under the sensorgrams, column KD
# [4] = molecular target: T1, PD-L1 (SPR target); assay: SPR; drawn table under the sensorgrams, column Kd
# T1 sequence (Q9NZQ7 19-238 limits assumed): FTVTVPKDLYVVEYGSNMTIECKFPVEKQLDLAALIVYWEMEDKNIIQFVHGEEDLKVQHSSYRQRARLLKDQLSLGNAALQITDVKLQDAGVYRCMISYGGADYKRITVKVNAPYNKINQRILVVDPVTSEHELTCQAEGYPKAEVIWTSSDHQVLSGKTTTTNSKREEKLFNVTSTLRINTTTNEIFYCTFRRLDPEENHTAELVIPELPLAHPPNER
binder,measurement,setting,value
B1,kon,[1],252000 M⁻¹ s⁻¹
same,strength of KD relative to free peptide (pPD1),[2],~100000 fold
same,Kd,[3],2.75 nM
same,koff,[4],0.000693 s⁻¹
B2,kon,[1],583000 M⁻¹ s⁻¹
same,Kd,[3],2.09 nM
same,koff,[4],0.00122 s⁻¹
"HVVWHRESPSGQTDTLAA (not fully specified (C-terminus), also called free pPD-1) [PD-L1-binding peptide (pPD-1), free peptide]",Kd,[3],119000 nM
same,koff,[4],0.127 s⁻¹
